Biological target: Ultramarine fluorescent protein
Assay: AUC

stoichiometry N: 2
Substance: Ultramarine fluorescent protein

From PMC10276540
